Measured values reported in patent US20090285803A1 (published 2009).

B2: AP-Nogo66 (ligand, UniProt Q9NQC3 1055-1120, looked up)
chain: RIYKGVIQAIQKSDEGHPFRAYLESEVAISEELVQKYSNSALGHVNCTIKELRRLFLVDDLVDSLK
notes: Produced in conditioned medium of 293 cells; also called Alkaline Phosphatase-Nogo66 fusion; not shown: Alkaline Phosphatase (AP)

Legend:
[1] = molecular target: B2; assay: expression cloning; AP-fusion bait (20-50 nM) on transfected COS7 cells, chromogenic AP staining
Source text: (§1) To identify novel receptors for inhibitory myelin proteins, an expression cloning approach was taken. As bait, constructs were generated that fused Alkaline Phosphatase (AP) to the N- and/or C-terminus of the following characterized myelin inhibitors (human cDNA used): Nogo66, two additional inhibitory domains of NogoA (NiRD2 and NiG20) (Oertle T, J Neurosci. 2003, 23(13): 5393-406), MAG, and OMgp. These constructs were transfected into 293 cells to produce conditioned medium (in DMEM/2% FBS) containing the bait proteins. The cDNA library used in the screen was comprised of full-length human cDNA clones in expression-ready vectors generated by Origene. These cDNAs were compiled, arrayed, and pooled. Pools of approximately 100 cDNA's were transiently transfected into COS7 cells.
(§2) In particular, on Day 1, COS7 cells were plated at a density of 85, 000 cells per well in 12-well plates. On Day 2, 1 mg of pooled cDNA's were transfected per well using the lipid-based transfection reagent FuGENE 6 (Roche). On Day 4, screening was performed. […] The cells were washed once in AP Buffer (100 mM NaCl, 5 mM MgCl₂, 100 mM Tris pH 9.5), and incubated in chromogenic substrate (Western Blue, Promega), and analyzed for presence of reaction product one hour after incubation, and again after overnight incubation. […]

[2] = molecular target: T1, Nogo Receptor (human, UniProt Q9BZR6 27-447); assay: as above
T1 construct: whole, on cells; also called NgR; NgR1
T1 sequence (looked up): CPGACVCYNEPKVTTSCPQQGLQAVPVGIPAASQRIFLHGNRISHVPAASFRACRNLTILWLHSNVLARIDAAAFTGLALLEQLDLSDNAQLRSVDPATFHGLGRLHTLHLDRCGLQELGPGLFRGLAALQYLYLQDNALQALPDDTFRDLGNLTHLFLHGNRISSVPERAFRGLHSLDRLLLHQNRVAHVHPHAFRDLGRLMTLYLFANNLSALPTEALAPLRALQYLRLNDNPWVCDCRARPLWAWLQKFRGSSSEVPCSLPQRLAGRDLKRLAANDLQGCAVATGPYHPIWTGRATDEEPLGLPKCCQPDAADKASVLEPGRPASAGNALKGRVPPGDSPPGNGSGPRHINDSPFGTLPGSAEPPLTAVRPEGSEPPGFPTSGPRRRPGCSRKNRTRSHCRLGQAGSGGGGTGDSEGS
Source text: as §1, §2

B1: Homo sapiens leukocyte immunoglobulin-like receptor, subfamily B (with TM and ITIM domains), member 2 (LILRB2) (receptor)
chain: QTGTIPKPTLWAEPDSVITQGSPVTLSCQGSLEAQEYRLYREKKSASWITRIRPELVKNGQFHIPSITWEHTGRYGCQYYSRARWSELSDPLVLVMTGAYPKPTLSAQPSPVVTSGGRVTLQCESQVAFGGFILCKEGEDEHPQCLNSQPHARGSSRAIFSVGPVSPNRRWSHRCYGYDLNSPYVWSSPSDLLELLVPGVSKKPSLSVQPGPVVAPGESLTLQCVSDVGYDRFVLYKEGERDLRQLPGRQPQAGLSQANFTLGPVSRSYGGQYRCYGAYNLSSEWSAPSDPLDILITGQIHGTPFISVQPGPTVASGENVTLLCQSWRQFHTFLLTKAGAADAPLRLRSIHEYPKYQAEFPMSPVTSAHAGTYRCYGSLNSDPYLLSHPSEPLELVVSGPSMGSSPPPTGPISTPAGPEDQPLTPTGSDPQSGLGRHLGVVIGILVAVVLLLLLLLLLFLILRHRRQGKHWTSTQRKADFQHPAGAVGPEPTDRGLQWRSSPAADAQEENLYAAVKDTQPEDGVEMDTRAAASEAPQDVTYAQLHSLTLRRKATEPPPSQEREPPAEPSIYATLAIH
notes: Full-length human cDNA clone expressed in COS7 cells; also called MIG10; ILT4
- binding result [1]: binds

Binder: B2
- binding result [2]: binds
